Experiments:
[1] = biological target: P. aeruginosa RloA2 (PA0462), residues 18-169 (P. aeruginosa); assay: SEC-MALS; 5 mg/mL (289 µM) protein on Superdex 200 Increase 10/300 in 25 mM Tris-HCl pH 7.5, 300 mM NaCl, 0.7 mL/min
[2] = biological target: P. fluorescens RloA (Pfl01_1762), residues 20-178 (P. fluorescens); assay: as above

stoichiometry N [2]	Substance	stoichiometry N [1]
–	P. aeruginosa RloA2 (PA0462), residues 18-169 (enzyme)	2
2	P. fluorescens RloA (Pfl01_1762), residues 20-178 (enzyme)	–
